Reference: patent US20260209358A1

T1: CD37 on CD37+ target tumor cells (Daudi or Ramos cells) (UniProt P11049)
T1 sequence (looked up): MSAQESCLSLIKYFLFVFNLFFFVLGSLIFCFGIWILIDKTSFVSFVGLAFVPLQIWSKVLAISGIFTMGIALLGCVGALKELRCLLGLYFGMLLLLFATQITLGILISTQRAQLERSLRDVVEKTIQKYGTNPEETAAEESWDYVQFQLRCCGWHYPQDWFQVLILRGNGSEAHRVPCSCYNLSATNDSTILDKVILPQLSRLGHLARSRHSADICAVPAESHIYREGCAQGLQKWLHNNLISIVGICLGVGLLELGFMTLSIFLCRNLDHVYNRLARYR

B1: 016-H5L2 IgG (parent CD37 IgG) (antibody, V domains shown)
VH: EVQLVESGGGLVQPGGSLRLSCAASGFSLSNYNMGWVRQAPGKGLEWVSVIDASGTTYYATWAKGRFTISRDNSKNTLYLQMNSLRAEDTATYYCARELLYFGSSYYDLWGQGTLVTVSS
VL: DVVMTQSPSTLSASVGDRVTITCQASQNIDSNLAWYQQKPGKAPKFLIYYASNLPFGVPSRFKGSGSGTEFTLTISSLQPDDFATYYCQSADVGSTYVAAFGGGTKVEIK
B2: 016-H5L2 × NKp46-1 H1L1 CD37/NKp46 bispecific MB (protein, part only; not given: Fab constants, linkers, ferritin, scFc, not shown: another chain or arm of the molecule; large carriers; small tags and cut ends)
VH 1: EVQLVESGGGLVQPGGSLRLSCAASGFSLSNYNMGWVRQAPGKGLEWVSVIDASGTTYYATWAKGRFTISRDNSKNTLYLQMNSLRAEDTATYYCARELLYFGSSYYDLWGQGTLVTVSS
VL 1: DVVMTQSPSTLSASVGDRVTITCQASQNIDSNLAWYQQKPGKAPKFLIYYASNLPFGVPSRFKGSGSGTEFTLTISSLQPDDFATYYCQSADVGSTYVAAFGGGTKVEIK
VH 2: QVQLVQSGAEVKKPGSSVKVSCKASGYTFSDYVINWVRQAPGQGLEWMGEIYPGSGTNYYNEKFKAKATITADKSTSTAYMELSSLRSEDTAVYYCARRGRYGLYAMDYWGQGTTVTVSS
VL 2: DIQMTQSPSSLSASVGDRVTITCRASQDISNYLNWYQQKPGKAPKLLIYYTSRLHSGVPSRFSGSGSGTDFTFTISSLQPEDIATYFCQQGNTRPWTFGGGTKVEIK
modifications: The variable domains sit in single-chain Fabs fused to human ferritin light chain. The NKp46 chain also carries a C-terminal scFc. The chains form a self-assembled multivalent nanocage.
B3: 016-H5L2 × NKp46-2 H1L1 CD37/NKp46 bispecific MB (protein, part only; not given: Fab constants, linkers, ferritin, scFc, not shown: another chain or arm of the molecule; large carriers; small tags and cut ends)
VH 1: EVQLVESGGGLVQPGGSLRLSCAASGFSLSNYNMGWVRQAPGKGLEWVSVIDASGTTYYATWAKGRFTISRDNSKNTLYLQMNSLRAEDTATYYCARELLYFGSSYYDLWGQGTLVTVSS
VL 1: DVVMTQSPSTLSASVGDRVTITCQASQNIDSNLAWYQQKPGKAPKFLIYYASNLPFGVPSRFKGSGSGTEFTLTISSLQPDDFATYYCQSADVGSTYVAAFGGGTKVEIK
VH 2: QVQLQESGPGLVKPSQTLSLTCTVSGYSISSDYAWNWIRQPPGKGLEWIGYITYSGSTSYNPSLESRVTISRDTSKNQFSLKLSSVTAADTAVYYCARGGYYGSSWGVFAYWGQGTLVTVSS
VL 2: DIQMTQSPSSLSASVGDRVTITCRVSENIYSYLAWYQQKPGKAPKLLVYNAKTLAEGVPSRFSGSGSGTDFTLTISSLQPEDFATYYCQHHYGTPWTFGGGTKVEIK
modifications: The variable domains sit in single-chain Fabs fused to human ferritin light chain. The NKp46 chain also carries a C-terminal scFc. The chains form a self-assembled multivalent nanocage.
B4: 016-H5L2 × NKp46-4 H1L2 CD37/NKp46 bispecific MB (protein, part only; not given: Fab constants, linkers, ferritin, scFc, not shown: another chain or arm of the molecule; large carriers; small tags and cut ends)
VH 1: EVQLVESGGGLVQPGGSLRLSCAASGFSLSNYNMGWVRQAPGKGLEWVSVIDASGTTYYATWAKGRFTISRDNSKNTLYLQMNSLRAEDTATYYCARELLYFGSSYYDLWGQGTLVTVSS
VL 1: DVVMTQSPSTLSASVGDRVTITCQASQNIDSNLAWYQQKPGKAPKFLIYYASNLPFGVPSRFKGSGSGTEFTLTISSLQPDDFATYYCQSADVGSTYVAAFGGGTKVEIK
VH 2: QVQLVQSGAEVKKPGASVKVSCKASGYTFTSFTMHWVRQAPGQGLEWIGYINPSSGYTEYNQKFKDRVTITADKSTSTAYMELSSLRSEDTAVYYCVRGSSRGFDYWGQGTLVTVSS
VL 2: DIQMTQSPSSLSASVGDRVTITCRASENIYSNLAWFQQKPGKAPKLLVYAATNLADGVPSRFSGSGSGTDYTLTISSLQPEDFATYYCQHFWGTPRTFGGGTKVEIK
modifications: The variable domains sit in single-chain Fabs fused to human ferritin light chain. The NKp46 chain also carries a C-terminal scFc. The chains form a self-assembled multivalent nanocage.
B5: 016-H5L2 × NKp46 09 CD37/NKp46 bispecific MB (protein, part only; not given: Fab constants, linkers, ferritin, scFc, not shown: another chain or arm of the molecule; large carriers; small tags and cut ends)
VH 1: EVQLVESGGGLVQPGGSLRLSCAASGFSLSNYNMGWVRQAPGKGLEWVSVIDASGTTYYATWAKGRFTISRDNSKNTLYLQMNSLRAEDTATYYCARELLYFGSSYYDLWGQGTLVTVSS
VL 1: DVVMTQSPSTLSASVGDRVTITCQASQNIDSNLAWYQQKPGKAPKFLIYYASNLPFGVPSRFKGSGSGTEFTLTISSLQPDDFATYYCQSADVGSTYVAAFGGGTKVEIK
VH 2: EVQLQQSGAEVKKPGSSVKVSCKTSGYTFTEYSMHWVRQAPGKSLEWFGGISPNSGGTSYNQKFKGRATLTVDKSSSTAYMELSSLRSEDTAVYYCARRDFHSSFDYWGQGTTVTVSS
VL 2: DIVMTQSPATLSLSPGERATLSCRASQSISDYLHWFQQKPHESPRLLIKYASQSISGIPARFSGSGSGSDFTLTISSLEPEDFAVYYCQNGHSFPLTFGPGTKVDIK
modifications: The variable domains sit in single-chain Fabs fused to human ferritin light chain. The NKp46 chain also carries a C-terminal scFc. The chains form a self-assembled multivalent nanocage.
B6: Naratuximab IgG (parent CD37 IgG) (antibody, V domains shown)
VH: QVQVQESGPGLVAPSQTLSITCTVSGFSLTTSGVSWVRQPPGKGLEWLGVIWGDGSTNYHPSLKSRLSIKKDHSKSQVFLKLNSLTAADTATYYCAKGGYSLAHWGQGTLVTVSS
VL: DIQMTQSPSSLSVSVGERVTITCRASENIRSNLAWYQQKPGKSPKLLVNVATNLADGVPSRFSGSGSGTDYSLKINSLQPEDFGTYYCQHYWGTTWTFGQGTKLEIKR
B7: Naratuximab × NKp46-2 H1L1 CD37/NKp46 bispecific MB (protein, part only; not given: Fab constants, linkers, ferritin, scFc, not shown: another chain or arm of the molecule; large carriers; small tags and cut ends)
VH 1: QVQLQESGPGLVKPSQTLSLTCTVSGYSISSDYAWNWIRQPPGKGLEWIGYITYSGSTSYNPSLESRVTISRDTSKNQFSLKLSSVTAADTAVYYCARGGYYGSSWGVFAYWGQGTLVTVSS
VL 1: DIQMTQSPSSLSASVGDRVTITCRVSENIYSYLAWYQQKPGKAPKLLVYNAKTLAEGVPSRFSGSGSGTDFTLTISSLQPEDFATYYCQHHYGTPWTFGGGTKVEIK
VH 2: QVQVQESGPGLVAPSQTLSITCTVSGFSLTTSGVSWVRQPPGKGLEWLGVIWGDGSTNYHPSLKSRLSIKKDHSKSQVFLKLNSLTAADTATYYCAKGGYSLAHWGQGTLVTVSS
VL 2: DIQMTQSPSSLSVSVGERVTITCRASENIRSNLAWYQQKPGKSPKLLVNVATNLADGVPSRFSGSGSGTDYSLKINSLQPEDFGTYYCQHYWGTTWTFGQGTKLEIK
B8: Naratuximab × NKp46-4 H1L2 CD37/NKp46 bispecific MB (protein, part only; not given: Fab constants, linkers, ferritin, scFc, not shown: another chain or arm of the molecule; large carriers; small tags and cut ends)
VH 1: QVQLVQSGAEVKKPGASVKVSCKASGYTFTSFTMHWVRQAPGQGLEWIGYINPSSGYTEYNQKFKDRVTITADKSTSTAYMELSSLRSEDTAVYYCVRGSSRGFDYWGQGTLVTVSS
VL 1: DIQMTQSPSSLSASVGDRVTITCRASENIYSNLAWFQQKPGKAPKLLVYAATNLADGVPSRFSGSGSGTDYTLTISSLQPEDFATYYCQHFWGTPRTFGGGTKVEIK
VH 2: QVQVQESGPGLVAPSQTLSITCTVSGFSLTTSGVSWVRQPPGKGLEWLGVIWGDGSTNYHPSLKSRLSIKKDHSKSQVFLKLNSLTAADTATYYCAKGGYSLAHWGQGTLVTVSS
VL 2: DIQMTQSPSSLSVSVGERVTITCRASENIRSNLAWYQQKPGKSPKLLVNVATNLADGVPSRFSGSGSGTDYSLKINSLQPEDFGTYYCQHYWGTTWTFGQGTKLEIK
B9: Naratuximab × NKp46-1 H1L1 CD37/NKp46 bispecific MB (protein, part only; not given: Fab constants, linkers, ferritin, scFc, not shown: another chain or arm of the molecule; large carriers; small tags and cut ends)
VH 1: QVQLVQSGAEVKKPGSSVKVSCKASGYTFSDYVINWVRQAPGQGLEWMGEIYPGSGTNYYNEKFKAKATITADKSTSTAYMELSSLRSEDTAVYYCARRGRYGLYAMDYWGQGTTVTVSS
VL 1: DIQMTQSPSSLSASVGDRVTITCRASQDISNYLNWYQQKPGKAPKLLIYYTSRLHSGVPSRFSGSGSGTDFTFTISSLQPEDIATYFCQQGNTRPWTFGGGTKVEIK
VH 2: QVQVQESGPGLVAPSQTLSITCTVSGFSLTTSGVSWVRQPPGKGLEWLGVIWGDGSTNYHPSLKSRLSIKKDHSKSQVFLKLNSLTAADTATYYCAKGGYSLAHWGQGTLVTVSS
VL 2: DIQMTQSPSSLSVSVGERVTITCRASENIRSNLAWYQQKPGKSPKLLVNVATNLADGVPSRFSGSGSGTDYSLKINSLQPEDFGTYYCQHYWGTTWTFGQGTKLEIK
B10: Naratuximab × NKp46 09 CD37/NKp46 bispecific MB (protein, part only; not given: Fab constants, linkers, ferritin, scFc, not shown: another chain or arm of the molecule; large carriers; small tags and cut ends)
VH 1: EVQLQQSGAEVKKPGSSVKVSCKTSGYTFTEYSMHWVRQAPGKSLEWFGGISPNSGGTSYNQKFKGRATLTVDKSSSTAYMELSSLRSEDTAVYYCARRDFHSSFDYWGQGTTVTVSS
VL 1: DIVMTQSPATLSLSPGERATLSCRASQSISDYLHWFQQKPHESPRLLIKYASQSISGIPARFSGSGSGSDFTLTISSLEPEDFAVYYCQNGHSFPLTFGPGTKVDIK
VH 2: QVQVQESGPGLVAPSQTLSITCTVSGFSLTTSGVSWVRQPPGKGLEWLGVIWGDGSTNYHPSLKSRLSIKKDHSKSQVFLKLNSLTAADTATYYCAKGGYSLAHWGQGTLVTVSS
VL 2: DIQMTQSPSSLSVSVGERVTITCRASENIRSNLAWYQQKPGKSPKLLVNVATNLADGVPSRFSGSGSGTDYSLKINSLQPEDFGTYYCQHYWGTTWTFGQGTKLEIK

Legend:
[1] = target: T1, CD37 on CD37+ target tumor cells (Daudi or Ramos cells); test: cell-based or functional assay
[2] = target: hNKp46-His (extracellular domain of hNKp46 with a C-terminal polyhistidine tag) (human) (UniProt O76036); test: BLI (Octet RED96), hNKp46-His on Ni-NTA biosensors, MB in solution, 1:1 fit
Chain of UniProt O76036 (O76036 22-258): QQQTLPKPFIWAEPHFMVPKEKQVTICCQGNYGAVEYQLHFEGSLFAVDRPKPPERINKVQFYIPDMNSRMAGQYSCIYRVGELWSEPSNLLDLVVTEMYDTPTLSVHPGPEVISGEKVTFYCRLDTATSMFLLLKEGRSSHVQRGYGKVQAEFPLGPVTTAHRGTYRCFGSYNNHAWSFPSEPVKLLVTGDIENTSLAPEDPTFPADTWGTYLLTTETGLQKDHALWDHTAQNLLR

Binder	EC50 of ADCC (calcein release) on Ramos cells with primary human NK cells [1]	EC50 of ADCP on Ramos cells with THP-1 effector cells [1]	EC50 of apoptosis (Annexin-V+ cells, flow cytometry) on Daudi cells [1]	Kd [2]	koff [2]	kon [2]	EC50 of CDC (PI+ cells) on Daudi cells with normal human serum [1]
B1	8.34 pM	21.4 pM					
B2	1.2 pM		102 pM	< 1 pM	< 1e-07 s⁻¹	2.15e+06 M⁻¹ s⁻¹	
B3	2.91 pM			< 1 pM	< 1e-07 s⁻¹	1.25e+06 M⁻¹ s⁻¹	
B4	3.73 pM		142 pM	< 1 pM	< 1e-07 s⁻¹	1.67e+06 M⁻¹ s⁻¹	
B5	2.72 pM			< 1 pM	< 1e-07 s⁻¹	1.06e+06 M⁻¹ s⁻¹	
B6	5.97 pM	37.4 pM					450 pM
B7	0.374 pM		32 pM	< 1 pM	< 1e-07 s⁻¹	2.2e+06 M⁻¹ s⁻¹	
B8	0.777 pM		73 pM	17.5 pM	3.42e-05 s⁻¹	1.96e+06 M⁻¹ s⁻¹	
B9	0.316 pM		54 pM	< 1 pM	< 1e-07 s⁻¹	3.65e+06 M⁻¹ s⁻¹	
B10	0.843 pM			< 1 pM	< 1e-07 s⁻¹	1.63e+06 M⁻¹ s⁻¹	
